Measured values reported in publication PMC12033333 (Nature Communications, 2025).

B3: GST-fused APB (PIF3 1-113 a.a.) (domain or fragment)
chain: MPLFELFRLTKAKLESAQDRNPSPPVDEVVELVWENGQISTQSQSSRSRNIPPPQANSSRAREIGNGSKTTMVDEIPMSVPSLMTGLSQDDDFVPWLNHHPSLDGYCSDFLRD
B4: SBP-fused phyB^PSM (domain or fragment)
chain: MVSGVGGSGGGRGGGRGGEEEPSSSHTPNNRRGGEQAQSSGTKSLRPRSNTESMSKAIQQYTVDARLHAVFEQSGESGKSFDYSQSLKTTTYGSSVPEQQITAYLSRIQRGGYIQPFGCMIAVDESSFRIIGYSENAREMLGIMPQSVPTLEKPEILAMGTDVRSLFTSSSSILLERAFVAREITLLNPVWIHSKNTGKPFYAILHRIDVGVVIDLEPARTEDPALSIAGAVQSQKLAVRAISQLQALPGGDIKLLCDTVVESVRDLTGYDRVMVYKFHEDEHGEVVAESKRDDLEPYIGLHYPATDIPQASRFLFKQNRVRMIVDCNATPVLVVQDDRLTQSMCLVGSTLRAPHGCHSQYMANMGSIASLAMAVIINGNEDDGSNVASGRSSMRLWGLVVCHHTSSRCIPFPLRYACEFLMQAFGLQLNMELQLALQMSEKRVLRTQTLLCDMLLRDSPAGIVTQSPSIMDLVKCDGAAFLYHGKYYPLGVAPSEVQIKDVVEWLLANHADSTGLSTDSLGDAGYPGAAALGDAVCGMAVAYITKRDFLFWFRSHTAKEIKWGGAKHHPEDKDDGQRMHPRSSFQAFLEVVKSRSQPWETAEMDAIHSLQLILRDSFKESEAAMNSKVVDGVVQPCRDMAGEQGIDELGAV
modifications: chromophore-bound (phycocyanobilin, PCB)

Assays:
Assay in all cases: pull-down
[1] = molecular target: T1, SBP-fused full-length phyA (Arabidopsis thaliana, UniProt P14712 1-1122, chromophore-bound (phycocyanobilin, PCB))
T1 sequence: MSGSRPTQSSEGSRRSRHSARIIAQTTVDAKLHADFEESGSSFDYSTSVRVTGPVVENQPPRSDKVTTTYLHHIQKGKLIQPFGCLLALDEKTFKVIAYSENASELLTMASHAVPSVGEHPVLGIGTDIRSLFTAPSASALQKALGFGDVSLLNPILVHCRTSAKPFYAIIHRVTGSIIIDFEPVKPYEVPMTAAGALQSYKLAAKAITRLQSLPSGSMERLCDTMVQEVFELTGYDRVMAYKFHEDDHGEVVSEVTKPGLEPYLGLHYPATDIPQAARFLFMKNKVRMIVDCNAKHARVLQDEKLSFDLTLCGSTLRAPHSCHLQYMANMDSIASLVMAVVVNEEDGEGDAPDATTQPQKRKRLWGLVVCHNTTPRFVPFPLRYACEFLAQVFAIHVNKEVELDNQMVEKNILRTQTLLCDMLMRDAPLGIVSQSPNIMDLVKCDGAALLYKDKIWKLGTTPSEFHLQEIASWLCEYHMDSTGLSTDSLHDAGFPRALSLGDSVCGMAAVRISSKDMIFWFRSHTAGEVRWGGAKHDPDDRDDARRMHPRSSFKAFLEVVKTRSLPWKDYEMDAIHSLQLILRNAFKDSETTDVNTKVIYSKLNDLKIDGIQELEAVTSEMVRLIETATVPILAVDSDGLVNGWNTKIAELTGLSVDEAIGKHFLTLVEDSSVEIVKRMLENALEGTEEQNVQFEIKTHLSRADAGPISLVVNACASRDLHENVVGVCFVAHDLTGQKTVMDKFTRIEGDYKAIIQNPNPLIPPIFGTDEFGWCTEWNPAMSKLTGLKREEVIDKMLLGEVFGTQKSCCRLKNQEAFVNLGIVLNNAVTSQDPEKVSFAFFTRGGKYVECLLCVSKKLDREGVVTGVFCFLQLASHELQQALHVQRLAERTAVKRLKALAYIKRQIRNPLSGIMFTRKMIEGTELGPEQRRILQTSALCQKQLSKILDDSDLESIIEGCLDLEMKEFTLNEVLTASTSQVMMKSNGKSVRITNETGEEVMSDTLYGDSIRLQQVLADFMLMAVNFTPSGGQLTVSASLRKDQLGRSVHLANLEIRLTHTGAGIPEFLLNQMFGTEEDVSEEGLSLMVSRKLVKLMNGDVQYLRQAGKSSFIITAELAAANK

SBP-fused phyB^PSM = molecular target: B4
MBP-fused phyA^OPM = molecular target: T2, MBP-fused phyA^OPM (Arabidopsis thaliana, UniProt P14712 608-1122)
T2 sequence: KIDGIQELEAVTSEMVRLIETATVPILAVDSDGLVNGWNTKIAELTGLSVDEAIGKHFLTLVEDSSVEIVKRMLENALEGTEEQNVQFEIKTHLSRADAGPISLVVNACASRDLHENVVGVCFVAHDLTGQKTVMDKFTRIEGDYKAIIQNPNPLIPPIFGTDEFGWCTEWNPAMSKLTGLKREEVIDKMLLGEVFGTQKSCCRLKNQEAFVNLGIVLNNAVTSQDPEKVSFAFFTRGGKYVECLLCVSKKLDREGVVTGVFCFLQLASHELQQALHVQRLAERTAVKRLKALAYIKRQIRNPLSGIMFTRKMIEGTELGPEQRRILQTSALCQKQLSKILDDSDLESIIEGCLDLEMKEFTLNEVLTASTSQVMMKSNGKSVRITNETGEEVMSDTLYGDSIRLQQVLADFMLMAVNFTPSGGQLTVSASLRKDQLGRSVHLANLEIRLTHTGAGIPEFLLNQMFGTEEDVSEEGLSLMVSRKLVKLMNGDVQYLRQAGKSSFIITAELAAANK

MBP-fused phyB^OPM = molecular target: T3, MBP-fused phyB^OPM (Arabidopsis thaliana, UniProt P14713 642-1172)
T3 sequence: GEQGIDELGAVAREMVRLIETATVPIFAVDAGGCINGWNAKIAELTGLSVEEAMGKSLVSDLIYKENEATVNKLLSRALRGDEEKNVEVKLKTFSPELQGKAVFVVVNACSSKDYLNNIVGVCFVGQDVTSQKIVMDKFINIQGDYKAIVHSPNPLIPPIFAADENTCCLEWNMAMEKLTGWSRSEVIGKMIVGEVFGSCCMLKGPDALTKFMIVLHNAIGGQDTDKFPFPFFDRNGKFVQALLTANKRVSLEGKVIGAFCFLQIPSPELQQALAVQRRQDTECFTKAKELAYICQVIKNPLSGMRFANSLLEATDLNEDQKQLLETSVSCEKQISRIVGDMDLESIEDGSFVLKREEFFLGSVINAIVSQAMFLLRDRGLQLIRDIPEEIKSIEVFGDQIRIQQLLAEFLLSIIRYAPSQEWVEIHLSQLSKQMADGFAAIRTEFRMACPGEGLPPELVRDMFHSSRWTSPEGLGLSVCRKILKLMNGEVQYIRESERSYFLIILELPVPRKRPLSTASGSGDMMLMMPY

[2] = molecular target: B3

B1: GST-PIF3 (natural protein)
chain: MPLFELFRLTKAKLESAQDRNPSPPVDEVVELVWENGQISTQSQSSRSRNIPPPQANSSRAREIGNGSKTTMVDEIPMSVPSLMTGLSQDDDFVPWLNHHPSLDGYCSDFLRDVSSPVTVNEQESDMAVNQTAFPLFQRRKDGNESAPAASSSQYNGFQSHSLYGSDRARDLPSQQTNPDRFTQTQEPLITSNKPSLVNFSHFLRPATFAKTTNNNLHDTKEKSPQSPPNVFQTRVLGAKDSEDKVLNESVASATPKDNQKACLISEDSCRKDQESEKAVVCSSVGSGNSLDGPSESPSLSLKRKHSNIQDIDCHSEDVEEESGDGRKEAGPSRTGLGSKRSRSAEVHNLSERRRRDRINEKMRALQELIPNCNKVDKASMLDEAIEYLKSLQLQVQIMSMASGYYLPPAVMFPPGMGHYPAAAAAMAMGMGMPYAMGLPDLSRGGSSVNHGPQFQVSGMQQQPVAMGIPRVSGGGIFAGSSTIGNGSTRDLSGSKDQTTTNNNSNLKPIKRKQGSSDQFCGSS
binding result [1]: binds
binding result (SBP-fused phyB^PSM): binds

B2: GST-tagged PIF1 (natural protein)
chain: MHHFVPDFDTDDDYVNNHNSSLNHLPRKSITTMGEDDDLMELLWQNGQVVVQNQRLHTKKPSSSPPKLLPSMDPQQQPSSDQNLFIQEDEMTSWLHYPLRDDDFCSDLLFSAAPTATATATVSQVTAARPPVSSTNESRPPVRNFMNFSRLRGDFNNGRGGESGPLLSKAVVRESTQVSPSATPSAAASESGLTRRTDGTDSSAVAGGGAYNRKGKAVAMTAPAIEITGTSSSVVSKSEIEPEKTNVDDRKRKEREATTTDETESRSEETKQARVSTTSTKRSRAAEVHNLSERKRRDRINERMKALQELIPRCNKSDKASMLDEAIEYMKSLQLQIQMMSMGCGMMPMMYPGMQQYMPHMAMGMGMNQPIPPPSFMPFPNMLAAQRPLPTQTHMAGSGPQYPVHASDPSRVFVPNQQYDPTSGQPQYPAGYTDPYQQFRGLHPTQPPQFQNQATSYPSSSRVSSSKESEDHGNHTTG
binding result (MBP-fused phyA^OPM): binds
binding result (MBP-fused phyB^OPM): binds

B3
binding result (SBP-fused phyB^PSM): binds

B4
fold strength against the phyB^OPM-APA interaction (m39 on m40) [2]: ~2 fold
